The results in this text go back to patent US20020142355A1 (BAYLOR COLLEGE OF MEDICINE, published 2002).

This data set deals with the molecule itself. The data set is described as follows: Western blot of transfected cells, self-association (trimer) of the fiber fusion. In general terms: In western blotting, separated proteins are transferred to a membrane and probed.

B1: adenovirus type 5 fiber protein joined to full length PSTCD (other)
chain: MKRARPSEDTFNPVYPYDTETGPPTVPFLTPPFVSPNGFQESPPGVLSLRLSEPLVTSNGMLALKMGNGLSLDEAGNLTSQNVTTVSPPLKKTKSNINLEISAPLTVTSEALTVAAAAPLMVAGNTLTMQSQAPLTVHDSKLSIATQGPLTVSEGKLALQTSGPLTTTDSSTLTITASPPLTTATGSLGIDLKEPIYTQNGKLGLKYGAPLHVTDDLNTLTVATGPGVTINNTSLQTKVTGALGFDSQGNMQLNVAGGLRIDSQNRRLILDVSYPFDAQNQLNLRLGQGPLFINSAHNLDINYNKGLYLFTASNNSKKLEVNLSTAKGLMFDATAIAINAGDGLEFGSPNAPNTNPLKTKIGHGLEFDSNKAMVPKLGTGLSFDSTGAITVGNKNNDKLTLWTTPAPSPNCRLNAEKDAKLTLVLTKCGSQILATVSVLAVKGSLAPISGTVQSAHLIIRFDENGVLLNNSFLDPEYWNFRNGDLTEGTAYTNAVGFMPNLSAYPKSHGKTAKSNIVSQVYLNGDKTKPVTLTITLNGTQETGDTTPSAYSMSFSWDWSGHNYINEIFATSSYTFSYIAQEKLKVTVNGTAYDVDVDVDKSHENPMGTILFGGGTGGAPAPAAGGAGAGKAGEGEIPAPLAGTVSKILVKEGDTVKAGQTVLVLEAMKMETEINAPTDGKVEKVLVKERDAVQGGQGLIKIG
modifications: biotin on lysine 89 of PSTCD (numbering of FIG. 1)
notes: also called fiber-PSTCD, full length form
As to B1, the binding result is given as “no binding”.

B2: adenovirus type 5 fiber protein with the C-terminal 70 amino acid PSTCD domain (biotinylated) (other)
chain: MKRARPSEDTFNPVYPYDTETGPPTVPFLTPPFVSPNGFQESPPGVLSLRLSEPLVTSNGMLALKMGNGLSLDEAGNLTSQNVTTVSPPLKKTKSNINLEISAPLTVTSEALTVAAAAPLMVAGNTLTMQSQAPLTVHDSKLSIATQGPLTVSEGKLALQTSGPLTTTDSSTLTITASPPLTTATGSLGIDLKEPIYTQNGKLGLKYGAPLHVTDDLNTLTVATGPGVTINNTSLQTKVTGALGFDSQGNMQLNVAGGLRIDSQNRRLILDVSYPFDAQNQLNLRLGQGPLFINSAHNLDINYNKGLYLFTASNNSKKLEVNLSTAKGLMFDATAIAINAGDGLEFGSPNAPNTNPLKTKIGHGLEFDSNKAMVPKLGTGLSFDSTGAITVGNKNNDKLTLWTTPAPSPNCRLNAEKDAKLTLVLTKCGSQILATVSVLAVKGSLAPISGTVQSAHLIIRFDENGVLLNNSFLDPEYWNFRNGDLTEGTAYTNAVGFMPNLSAYPKSHGKTAKSNIVSQVYLNGDKTKPVTLTITLNGTQETGDTTPSAYSMSFSWDWSGHNYINEIFATSSYTFSYIAQEEGEIPAPLAGTVSKILVKEGDTVKAGQTVLVLEAMKMETEINAPTDGKVEKVLVKERDAVQGGQGLIKIG
modifications: biotin on lysine 89 of PSTCD (numbering of FIG. 1, full length PSTCD)
notes: also called fiber/PSTCD fusion protein; fiber of the biotinylated adenovirus
B2: the binding result is “binds”.
